In article PMC5448004:

Biological target: HepA (helicase protein A), archaeal HerA homolog of Thermus thermophilus, product of gene TTC0147 (Thermus thermophilus HB27)
Test: negative-stain single-particle electron microscopy; purified HepA at 0.3 mg/mL in 20 mM Tris-HCl pH 7.5, pre-incubated with 1-10 mM ATP (30 min, 65 °C), 2% uranyl acetate; 2D classification and 3D reconstruction with C6 symmetry

Substance “HepA (helicase protein A), archaeal HerA homolog of Thermus thermophilus, product of gene TTC0147 (enzyme)” has a stoichiometry N of 6.
